By Kd is commonly meant a measure of binding affinity in units of concentration.

Consider 15 molecules from article PMC4141822.

The target of data set [1] is T1, Csa5 (Csa5b) WT (Thermoproteus tenax Kra1) (UniProt G4RJZ0).
T1 sequence: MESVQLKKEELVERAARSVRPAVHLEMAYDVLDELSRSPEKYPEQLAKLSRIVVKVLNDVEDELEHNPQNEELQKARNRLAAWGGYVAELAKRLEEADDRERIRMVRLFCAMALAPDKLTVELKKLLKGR
The experiment in a line: EMSA. As to conditions: EMSA: 100 mM HEPES/KOH pH 7, 10 mM beta-mercaptoethanol, 37 C 30 min, 6% native TBE PAGE; MST: 50 mM Tris-HCl pH 7.4, 150 mM NaCl, 0.05% Tween-20, 37 C 30 min …. In general terms: In EMSA bound probe runs differently from free probe, usually more slowly.

The target in data set [2] is T2, Csa5 (Csa5b) WT (Thermoproteus tenax Kra1, UniProt G4RJZ0 1-130).
T2 sequence: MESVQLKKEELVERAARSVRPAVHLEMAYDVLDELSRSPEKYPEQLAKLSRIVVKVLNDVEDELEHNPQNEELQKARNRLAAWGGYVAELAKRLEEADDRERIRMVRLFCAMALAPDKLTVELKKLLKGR
The experiment in a line: EMSA; 7-fold weaker than NT DNA; EMSA: 100 mM HEPES/KOH pH 7, 10 mM beta-mercaptoethanol, 37 C 30 min, 6% native TBE PAGE; MST: 50 mM Tris-HCl pH 7.4, 150 mM NaCl, 0.05% Tween-20, 37 C 30 min. As to conditions: protein: recombinant; tags: none stated (pET24a); label: 5' 32P.

In data set [3] the target is T2, Csa5 (Csa5b) WT. The data set can be described thus: MST; Tris pH 7.4, 150 mM NaCl; no metal; EMSA: 100 mM HEPES/KOH pH 7, 10 mM beta-mercaptoethanol, 37 C 30 min, 6% native TBE PAGE; MST: 50 mM Tris-HCl pH 7.4, 150 mM NaCl, 0.05% Tween-20, 37 C 30 min. As to conditions: protein: recombinant; tags: none stated (pET24a); label: 5' Cy3.
For data set [4], the target named is T2, Csa5 (Csa5b) WT. The data set can be described thus: EMSA; 3.75-60 uM Csa5; EMSA: 100 mM HEPES/KOH pH 7, 10 mM beta-mercaptoethanol, 37 C 30 min, 6% native TBE PAGE; MST: 50 mM Tris-HCl pH 7.4, 150 mM NaCl, 0.05% Tween-20, 37 C 30 min. Conditions: protein: recombinant; tags: none stated (pET24a); label: 5' 32P.
Data set [5] addresses T2, Csa5 (Csa5b) WT. The data set can be described thus: EMSA; no difference from AGG-PAM; EMSA: 100 mM HEPES/KOH pH 7, 10 mM beta-mercaptoethanol, 37 C 30 min, 6% native TBE PAGE; MST: 50 mM Tris-HCl pH 7.4, 150 mM NaCl, 0.05% Tween-20, 37 C 30 min. As to conditions: protein: recombinant; tags: none stated (pET24a); label: 5' 32P.
Data set [6] has as its target T3, Thermoproteus tenax Cas5a (Thermoproteus tenax, UniProt G4RJZ2 1-226).
T3 sequence (looked up): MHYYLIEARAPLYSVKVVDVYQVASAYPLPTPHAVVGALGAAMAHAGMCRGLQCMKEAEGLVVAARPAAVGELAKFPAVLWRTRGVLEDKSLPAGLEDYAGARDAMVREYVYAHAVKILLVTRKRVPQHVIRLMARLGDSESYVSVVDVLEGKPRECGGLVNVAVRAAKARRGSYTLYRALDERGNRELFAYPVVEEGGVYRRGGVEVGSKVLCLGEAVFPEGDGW
The data set can be described thus: co-refolding reconstitution, soluble fraction by SDS-PAGE; 300 µg of each GdmCl-solubilized Cas5a, Cas3′, Cas3″ and Cas8a2 mixed with purified Cas7 and a Csa5 variant, co-refolded by stepwise dialysis into GdmCl-free buffer; aggregates precipitated (14,000×g, 30 min, 4°C), soluble proteins concentrated and analysed by SDS-PAGE. Conditions: both partners purified.

The next data set deals with T4, Thermoproteus tenax Cas7 (Thermoproteus tenax, UniProt G4RJZ1 1-329).
T4 sequence (looked up): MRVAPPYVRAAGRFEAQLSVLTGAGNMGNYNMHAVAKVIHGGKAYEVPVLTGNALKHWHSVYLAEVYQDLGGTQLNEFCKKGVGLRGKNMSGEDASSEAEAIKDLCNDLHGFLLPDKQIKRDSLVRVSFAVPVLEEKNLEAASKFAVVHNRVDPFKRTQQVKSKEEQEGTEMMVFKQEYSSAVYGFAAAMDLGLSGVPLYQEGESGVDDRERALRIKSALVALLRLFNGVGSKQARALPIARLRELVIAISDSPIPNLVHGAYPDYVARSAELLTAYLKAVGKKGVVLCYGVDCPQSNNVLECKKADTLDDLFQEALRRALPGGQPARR
The description is as above. Conditions: both partners purified.

The target of data set [7] is T5, Thermoproteus tenax Cas8a2 (Thermoproteus tenax, UniProt G4RJZ5 1-361).
T5 construct: also called large subunit
T5 sequence (looked up): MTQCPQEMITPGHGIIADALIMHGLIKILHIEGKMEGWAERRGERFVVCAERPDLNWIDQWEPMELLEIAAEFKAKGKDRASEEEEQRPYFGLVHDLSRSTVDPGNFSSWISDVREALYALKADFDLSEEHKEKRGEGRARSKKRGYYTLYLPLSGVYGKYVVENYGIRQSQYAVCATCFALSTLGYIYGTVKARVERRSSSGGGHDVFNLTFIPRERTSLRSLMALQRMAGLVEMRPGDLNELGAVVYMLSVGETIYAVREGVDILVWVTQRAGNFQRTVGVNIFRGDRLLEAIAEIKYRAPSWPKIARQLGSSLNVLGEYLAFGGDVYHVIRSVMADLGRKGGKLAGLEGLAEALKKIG
The data set is described as above. Conditions: both partners purified.

In data set [8] the target is T2, Csa5 (Csa5b) WT. The experiment in a line: EMSA; no difference from GAG-PAM; EMSA: 100 mM HEPES/KOH pH 7, 10 mM beta-mercaptoethanol, 37 C 30 min, 6% native TBE PAGE; MST: 50 mM Tris-HCl pH 7.4, 150 mM NaCl, 0.05% Tween-20, 37 C 30 min. Conditions: protein: recombinant; tags: none stated (pET24a); label: 5' 32P.
For data set [9], the target named is T2, Csa5 (Csa5b) WT. The experiment in a line: EMSA; 15 uM Csa5; EMSA: 100 mM HEPES/KOH pH 7, 10 mM beta-mercaptoethanol, 37 C 30 min, 6% native TBE PAGE; MST: 50 mM Tris-HCl pH 7.4, 150 mM NaCl, 0.05% Tween-20, 37 C 30 min. As to conditions: protein: recombinant; tags: none stated (pET24a); label: 5' 32P.
In data set [10] the target is T2, Csa5 (Csa5b) WT. The experiment in a line: EMSA; duplex formed with 1000x cold crRNA; 15 uM Csa5; EMSA: 100 mM HEPES/KOH pH 7, 10 mM beta-mercaptoethanol, 37 C 30 min, 6% native TBE PAGE; MST: 50 mM Tris-HCl pH 7.4, 150 mM NaCl, 0.05% Tween-20, 37 C 30 min. Conditions: protein: recombinant; tags: none stated (pET24a); label: 5' 32P on DNA.

Molecule “GTCGACTAATACGACTCACTATAGGCCTATCGCTTGTCCAACCGGGCTCCTCTATATGTCGTCATTAGCTTACCGCTGAGCAATAACTAGCAAGCTT (double strand) [NT/T dsDNA 97 bp]” gave a binding signal (fold weaker than ssDNA) in [1] of 14.
As for ATCGCTTGTCCAACCGGGCTCCTCTATATGTCGTCATT (ssDNA) [p2 (38 nt)], in the data set with Csa5 (Csa5b) WT [2], the binding signal was determined as 12 % bound at 15 uM.
Still for that read-out and setting: as for CGTCATTAGCTTACCGCTGAGCAATAACTAGCAAGCTT (ssDNA) [p3 (38 nt)], the figure is 12 % bound at 15 uM.

B1: Cy3-non-target ssDNA 80 nt (ssDNA)
DNA: CGACTCACTATAGGCCTATCGCTTGTCCAACCGGGCTCCTCTATATGTCGTCATTAGCTTACCGCTGAGCAATAACTAGC
Regarding B1, the Kd in the data set with Csa5 (Csa5b) WT [3] came to 6.49 µM.

B2: CCA-PAM poly-PAM ssDNA (ssDNA)
DNA: AAAACCAAAACCAAAACCAAAACCAAAACCAAAACCAAAACCAAAACCAAAACCAAAACCAAAACCAAAACCAAAACCAAAACCAAAACCAAAACCAAAA
Take B2: the binding result with Csa5 (Csa5b) WT [4] is on record as “binds”.
On to GTCGACTAATACGACTCACTATAGGCCTATCGCTTGTC (ssDNA) [p1 (38 nt)], for which, in the data set with Csa5 (Csa5b) WT [2], the binding signal came out at 12 % bound at 15 uM.

B3: CAC-PAM disrupted poly-PAM ssDNA (ssDNA)
DNA: AAAACACAAACACAAACACAAACACAAACACAAACACAAACACAAACACAAACACAAACACAAACACAAACACAAACACAAACACAAACACAAACACAAA
For B3, in the data set with Csa5 (Csa5b) WT [4], the binding result is on record as “binds”.

B4: GAG-PAM disrupted poly-PAM ssDNA (ssDNA)
DNA: AAAAGAGAAAGAGAAAGAGAAAGAGAAAGAGAAAGAGAAAGAGAAAGAGAAAGAGAAAGAGAAAGAGAAAGAGAAAGAGAAAGAGAAAGAGAAAGAGAAA
Turning to B4, in the data set with Csa5 (Csa5b) WT [5], the binding result is on record as “binds”.

B5: Thermoproteus tenax Csa5 wild type (TTX_1250) (natural protein, Thermoproteus tenax Kra1, UniProt G4RJZ0 1-130, looked up)
chain: MESVQLKKEELVERAARSVRPAVHLEMAYDVLDELSRSPEKYPEQLAKLSRIVVKVLNDVEDELEHNPQNEELQKARNRLAAWGGYVAELAKRLEEADDRERIRMVRLFCAMALAPDKLTVELKKLLKGR
notes: Csa5 (Csa5b), small subunit of the type I-A Cascade, Thermoproteus tenax Kra1, locus TTX_1250; theoretical mass of the monomer 15.04 kDa; no tag is named and the purification uses none; also called Csa5 WT; Csa5b; source: E. coli Rosetta(DE3)pLysS, purified (heat precipitation 90°C, Blue-Sepharose, MonoQ)
For B5, the binding result (in data set [6]; with Thermoproteus tenax Cas7; in [7]) was “binds” each time.

B6: Thermoproteus tenax Csa5 D30A/D33A (natural protein, Thermoproteus tenax Kra1, UniProt G4RJZ0 1-130, looked up)
chain: MESVQLKKEELVERAARSVRPAVHLEMAYAVLAELSRSPEKYPEQLAKLSRIVVKVLNDVEDELEHNPQNEELQKARNRLAAWGGYVAELAKRLEEADDRERIRMVRLFCAMALAPDKLTVELKKLLKGR
notes: Made by site-directed mutagenesis of the pET24a csa5 construct; source: E. coli Rosetta(DE3)pLysS, purified (heat precipitation 90°C, Blue-Sepharose, MonoQ)
With B6, the binding result (in [6]; in the data set with Thermoproteus tenax Cas7; in [7]) was “binds” each time.

B7: Thermoproteus tenax Csa5 D33A (natural protein, Thermoproteus tenax Kra1, UniProt G4RJZ0 1-130, looked up)
chain: MESVQLKKEELVERAARSVRPAVHLEMAYDVLAELSRSPEKYPEQLAKLSRIVVKVLNDVEDELEHNPQNEELQKARNRLAAWGGYVAELAKRLEEADDRERIRMVRLFCAMALAPDKLTVELKKLLKGR
notes: as for B6
For the molecule B7, the binding result (in data set [6]; in the data set with Thermoproteus tenax Cas7; in data set [7]) was “binds” throughout.

B8: Thermoproteus tenax Csa5 Y29A (natural protein, Thermoproteus tenax Kra1, UniProt G4RJZ0 1-130, looked up)
chain: MESVQLKKEELVERAARSVRPAVHLEMAADVLDELSRSPEKYPEQLAKLSRIVVKVLNDVEDELEHNPQNEELQKARNRLAAWGGYVAELAKRLEEADDRERIRMVRLFCAMALAPDKLTVELKKLLKGR
notes: as for B6
As to B8, the binding result (in data set [6]; in the data set with Thermoproteus tenax Cas7; in data set [7]) was “binds” in each case.

B9: AGG-PAM poly-PAM ssDNA (ssDNA)
DNA: AAAAGGAAAAGGAAAAGGAAAAGGAAAAGGAAAAGGAAAAGGAAAAGGAAAAGGAAAAGGAAAAGGAAAAGGAAAAGGAAAAGGAAAAGGAAAAGGAAAA
Turning to B9, the binding result with Csa5 (Csa5b) WT [8] is on record as “binds”.

B10: target (T) ssDNA 97 nt (ssDNA)
DNA: AAGCTTGCTAGTTATTGCTCAGCGGTAAGCTAATGACGACATATAGAGGAGCCCGGTTGGACAAGCGATAGGCCTATAGTGAGTCGTATTAGTCGAC
With B10, in the data set with Csa5 (Csa5b) WT [9], the binding result was “binds”.

B11: T DNA:crRNA hybrid (DNA:RNA)
DNA: AAGCTTGCTAGTTATTGCTCAGCGGTAAGCTAATGACGACATATAGAGGAGCCCGGTTGGACAAGCGATAGGCCTATAGTGAGTCGTATTAGTCGAC
RNA: AUUGAAAGAUCGCUUGUCCAACCGGGCUCCUCUAUAUGUCGUCAUUAGCUUAGA
In the case of B11, in the data set with Csa5 (Csa5b) WT [10], the binding result is listed as “no binding”.
